# Reference: the supplement of paper PMC10065799, “High-throughput profiling of sequence recognition by tyrosine kinases and SH2 domains using bacterial peptide display” (eLife, 2023)
# How the values were obtained:
# [1] = target: EPHB1 (UniProt P54762); experiment: phosphorylation enrichment, bacterial display (enrichment ratio); higher = better substrate or ligand; peptides without Tyr show the background
# [2] = system: Fer (mouse); experiment: as above
# [3] = target: FGFR1 (UniProt P11362); experiment: as above
# Chain of FGFR1 (P11362 whole entry, looked up): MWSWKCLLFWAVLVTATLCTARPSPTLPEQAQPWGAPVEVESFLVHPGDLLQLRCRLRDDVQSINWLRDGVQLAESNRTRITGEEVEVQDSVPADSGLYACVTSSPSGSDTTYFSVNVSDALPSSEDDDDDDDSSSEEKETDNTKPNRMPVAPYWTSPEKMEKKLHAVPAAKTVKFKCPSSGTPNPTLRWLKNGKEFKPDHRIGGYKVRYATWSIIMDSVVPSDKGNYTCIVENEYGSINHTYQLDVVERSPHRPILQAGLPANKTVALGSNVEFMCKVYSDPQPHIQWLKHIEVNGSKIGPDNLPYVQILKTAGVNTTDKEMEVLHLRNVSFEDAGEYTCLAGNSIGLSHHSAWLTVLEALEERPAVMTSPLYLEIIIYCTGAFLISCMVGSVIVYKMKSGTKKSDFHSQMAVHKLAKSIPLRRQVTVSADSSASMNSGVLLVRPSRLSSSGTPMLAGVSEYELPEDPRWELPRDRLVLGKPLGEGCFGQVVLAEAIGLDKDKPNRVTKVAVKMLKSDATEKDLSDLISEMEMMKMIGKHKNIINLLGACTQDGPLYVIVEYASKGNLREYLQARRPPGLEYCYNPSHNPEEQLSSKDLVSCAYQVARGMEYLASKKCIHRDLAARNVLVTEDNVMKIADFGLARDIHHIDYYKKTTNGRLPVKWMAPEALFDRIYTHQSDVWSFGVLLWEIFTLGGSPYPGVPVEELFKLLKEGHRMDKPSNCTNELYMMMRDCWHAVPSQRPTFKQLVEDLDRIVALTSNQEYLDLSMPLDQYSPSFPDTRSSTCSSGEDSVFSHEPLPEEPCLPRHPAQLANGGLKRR
# [4] = target: Fyn (UniProt P06241); experiment: as above
# [5] = target: FGFR3 (UniProt P22607); experiment: as above
# Chain of FGFR3 (P22607 whole entry, looked up): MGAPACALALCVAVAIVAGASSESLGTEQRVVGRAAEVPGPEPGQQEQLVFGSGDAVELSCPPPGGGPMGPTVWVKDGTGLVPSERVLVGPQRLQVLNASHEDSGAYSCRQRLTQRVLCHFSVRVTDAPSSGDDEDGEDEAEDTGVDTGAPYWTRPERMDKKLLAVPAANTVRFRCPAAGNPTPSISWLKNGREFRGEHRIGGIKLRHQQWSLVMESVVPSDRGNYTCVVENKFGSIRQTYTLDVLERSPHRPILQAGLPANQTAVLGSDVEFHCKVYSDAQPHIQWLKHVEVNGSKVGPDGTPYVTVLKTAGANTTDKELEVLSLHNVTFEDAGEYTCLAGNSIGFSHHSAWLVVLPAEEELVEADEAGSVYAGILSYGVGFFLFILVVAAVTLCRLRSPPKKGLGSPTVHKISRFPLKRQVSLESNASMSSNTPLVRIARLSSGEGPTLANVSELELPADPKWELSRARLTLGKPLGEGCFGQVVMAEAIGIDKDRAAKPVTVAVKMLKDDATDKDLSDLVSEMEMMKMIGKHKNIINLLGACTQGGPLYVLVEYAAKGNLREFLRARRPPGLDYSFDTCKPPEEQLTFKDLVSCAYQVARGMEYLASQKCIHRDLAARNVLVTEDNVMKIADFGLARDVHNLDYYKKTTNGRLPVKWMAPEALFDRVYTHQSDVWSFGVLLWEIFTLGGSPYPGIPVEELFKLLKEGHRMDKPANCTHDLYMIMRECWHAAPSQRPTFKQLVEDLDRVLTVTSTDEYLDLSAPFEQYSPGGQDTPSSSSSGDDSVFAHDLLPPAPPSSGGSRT
# [6] = system: AncSZ; experiment: as above
# [7] = target: MERTK (UniProt Q12866); experiment: as above
# Chain of MERTK (Q12866 whole entry, looked up): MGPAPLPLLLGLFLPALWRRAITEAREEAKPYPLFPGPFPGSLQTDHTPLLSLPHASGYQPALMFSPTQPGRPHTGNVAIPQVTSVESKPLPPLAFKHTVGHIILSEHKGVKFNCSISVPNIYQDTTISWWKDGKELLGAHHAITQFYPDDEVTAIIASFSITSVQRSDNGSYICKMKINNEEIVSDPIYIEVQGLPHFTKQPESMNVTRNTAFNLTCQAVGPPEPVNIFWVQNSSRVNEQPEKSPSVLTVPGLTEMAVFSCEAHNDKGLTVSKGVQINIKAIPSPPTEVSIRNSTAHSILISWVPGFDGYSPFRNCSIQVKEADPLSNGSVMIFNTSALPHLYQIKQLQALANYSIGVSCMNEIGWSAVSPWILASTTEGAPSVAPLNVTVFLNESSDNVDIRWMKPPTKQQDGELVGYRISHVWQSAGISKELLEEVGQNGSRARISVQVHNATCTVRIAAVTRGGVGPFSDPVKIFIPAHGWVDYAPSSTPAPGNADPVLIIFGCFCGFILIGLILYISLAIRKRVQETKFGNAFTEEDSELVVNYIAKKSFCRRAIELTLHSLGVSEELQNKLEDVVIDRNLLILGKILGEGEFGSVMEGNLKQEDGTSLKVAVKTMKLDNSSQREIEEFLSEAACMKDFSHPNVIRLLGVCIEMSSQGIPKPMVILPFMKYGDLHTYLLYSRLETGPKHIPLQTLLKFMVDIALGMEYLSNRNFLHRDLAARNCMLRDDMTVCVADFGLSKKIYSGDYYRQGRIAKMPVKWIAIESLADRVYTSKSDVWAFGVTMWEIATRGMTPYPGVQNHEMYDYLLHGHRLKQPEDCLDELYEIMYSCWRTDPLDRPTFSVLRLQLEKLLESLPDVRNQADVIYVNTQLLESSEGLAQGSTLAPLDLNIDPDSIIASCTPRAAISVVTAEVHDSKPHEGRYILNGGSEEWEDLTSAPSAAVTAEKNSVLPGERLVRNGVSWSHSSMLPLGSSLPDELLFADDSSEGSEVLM
# [8] = target: Fes (UniProt P07332); experiment: as above
# Chain of Fes (P07332 whole entry, looked up): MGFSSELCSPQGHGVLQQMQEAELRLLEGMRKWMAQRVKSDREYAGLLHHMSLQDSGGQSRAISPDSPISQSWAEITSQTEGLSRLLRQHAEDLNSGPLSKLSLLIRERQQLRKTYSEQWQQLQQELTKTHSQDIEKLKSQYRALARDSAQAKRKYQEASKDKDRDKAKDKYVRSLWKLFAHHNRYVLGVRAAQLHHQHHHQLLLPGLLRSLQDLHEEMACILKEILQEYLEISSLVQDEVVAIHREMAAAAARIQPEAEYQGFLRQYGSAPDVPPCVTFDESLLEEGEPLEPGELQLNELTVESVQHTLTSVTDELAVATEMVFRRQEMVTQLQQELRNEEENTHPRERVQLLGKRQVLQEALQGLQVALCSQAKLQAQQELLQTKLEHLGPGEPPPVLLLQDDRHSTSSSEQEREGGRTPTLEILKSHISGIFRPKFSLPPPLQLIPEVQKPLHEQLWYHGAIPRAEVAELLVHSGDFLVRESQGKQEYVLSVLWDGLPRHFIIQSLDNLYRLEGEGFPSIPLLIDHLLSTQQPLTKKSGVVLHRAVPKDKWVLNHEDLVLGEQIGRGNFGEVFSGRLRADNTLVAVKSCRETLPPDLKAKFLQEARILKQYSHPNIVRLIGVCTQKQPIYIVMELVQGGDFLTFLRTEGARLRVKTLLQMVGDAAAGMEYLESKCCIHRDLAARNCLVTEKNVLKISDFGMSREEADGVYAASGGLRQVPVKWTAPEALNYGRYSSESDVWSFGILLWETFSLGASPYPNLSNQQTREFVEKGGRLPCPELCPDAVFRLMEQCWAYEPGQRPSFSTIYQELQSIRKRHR
# [9] = system: c-Abl (mouse); experiment: as above
# [10] = target: Jak2 (UniProt O60674); experiment: as above
# Chain of Jak2 (O60674 whole entry, looked up): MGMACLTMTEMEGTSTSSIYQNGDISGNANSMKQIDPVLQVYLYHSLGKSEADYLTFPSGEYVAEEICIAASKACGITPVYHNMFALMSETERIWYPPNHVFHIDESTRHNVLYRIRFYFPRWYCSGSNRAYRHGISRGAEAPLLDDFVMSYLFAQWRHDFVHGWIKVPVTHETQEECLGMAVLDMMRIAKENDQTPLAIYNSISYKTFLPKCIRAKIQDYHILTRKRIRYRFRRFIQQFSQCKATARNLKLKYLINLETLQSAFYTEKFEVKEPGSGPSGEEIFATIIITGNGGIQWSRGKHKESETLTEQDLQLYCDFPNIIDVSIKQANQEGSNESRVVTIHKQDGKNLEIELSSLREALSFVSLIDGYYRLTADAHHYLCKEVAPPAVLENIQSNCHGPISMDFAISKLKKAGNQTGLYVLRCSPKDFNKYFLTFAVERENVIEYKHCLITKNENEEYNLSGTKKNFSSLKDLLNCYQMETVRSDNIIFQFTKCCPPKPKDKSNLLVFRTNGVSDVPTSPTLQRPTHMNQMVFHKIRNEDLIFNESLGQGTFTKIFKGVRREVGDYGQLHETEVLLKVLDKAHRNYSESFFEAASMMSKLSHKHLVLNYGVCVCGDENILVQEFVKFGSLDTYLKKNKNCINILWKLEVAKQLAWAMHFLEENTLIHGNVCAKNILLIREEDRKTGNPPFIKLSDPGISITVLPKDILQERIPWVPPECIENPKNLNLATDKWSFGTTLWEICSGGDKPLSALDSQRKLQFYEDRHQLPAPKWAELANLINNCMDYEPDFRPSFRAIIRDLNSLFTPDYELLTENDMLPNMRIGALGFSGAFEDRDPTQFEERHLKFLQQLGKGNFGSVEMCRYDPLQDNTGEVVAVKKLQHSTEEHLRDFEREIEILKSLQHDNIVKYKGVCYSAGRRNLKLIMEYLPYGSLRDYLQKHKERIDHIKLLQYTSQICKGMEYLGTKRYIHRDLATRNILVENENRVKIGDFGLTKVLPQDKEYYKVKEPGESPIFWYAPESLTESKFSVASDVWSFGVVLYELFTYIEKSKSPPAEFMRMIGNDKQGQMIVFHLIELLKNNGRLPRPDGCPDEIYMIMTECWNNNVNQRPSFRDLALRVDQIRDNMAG
# [11] = target: Hck (UniProt P08631); experiment: as above
# [12] = target: EPHB2 (UniProt P29323); experiment: as above
# [13] = system: c-Src; experiment: as above
# [14] = target: SHP2-C SH2; experiment: SH2 binding enrichment of the phosphorylated peptide, bacterial display (enrichment ratio); higher = better substrate or ligand; peptides without Tyr show the background
# [15] = target: c-Src SH2; experiment: as above
# [16] = target: Grb2 SH2 (UniProt P62993); experiment: as above
# Chain of Grb2 SH2 (P62993 whole entry, looked up, the tested form may be a part): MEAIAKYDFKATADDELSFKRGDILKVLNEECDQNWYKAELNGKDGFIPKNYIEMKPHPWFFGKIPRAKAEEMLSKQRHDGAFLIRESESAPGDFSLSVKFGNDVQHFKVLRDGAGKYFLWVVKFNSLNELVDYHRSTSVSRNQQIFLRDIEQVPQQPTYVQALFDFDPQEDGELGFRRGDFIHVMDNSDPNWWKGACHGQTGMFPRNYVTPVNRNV
# 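Wherever SH2 binding enrichment of the phosphorylated peptide, bacterial display is given: peptide library displayed on the E. coli surface as eCPX fusions, selected cells deep-sequenced, score is each peptide's frequency after selection divided by its frequency in the input.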
# 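Wherever phosphorylation enrichment, bacterial display is given: 11-residue human phosphosite peptides and single-mutation variants displayed on the E. coli surface, counted by deep sequencing, each peptide's frequency after selection divided by its frequency in the unselected input library; frequency after pTyr selection over input frequency; kinase dosed for 20-30% of maximal phosphorylation in three min.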
Sequence,phosphorylation enrichment [1],phosphorylation enrichment [2],phosphorylation enrichment [3],phosphorylation enrichment [4],phosphorylation enrichment [5],phosphorylation enrichment [6],phosphorylation enrichment [7],phosphorylation enrichment [8],phosphorylation enrichment [9],phosphorylation enrichment [10],phosphorylation enrichment [11],phosphorylation enrichment [12],phosphorylation enrichment [13],SH2 binding enrichment [14],SH2 binding enrichment [15],SH2 binding enrichment [16]
DLGIQYKALKP [CTNNA1_Y177],0.568,0.498,0.507,0.388,0.631,0.754,0.453,0.853,0.573,0.725,0.485,0.442,0.449,0.594,0.361,0.897
LLSVAYQNVVG [YWHAG_Y49_K50Q],1.19,0.83,1.34,0.757,1.08,1.23,0.519,1.25,0.832,1.22,0.632,1.07,0.443,2.77,2.53,21.1
LGPDGYSTVDR [ARVCF_Y901],0.318,0.709,0.617,0.679,0.81,2.11,0.553,1.31,0.909,1.01,0.405,0.594,0.395,1.18,29.2,0.927
RTCSSYAIEKI [PARP15_Y520],0.532,0.371,0.589,0.302,0.629,1.13,0.344,0.986,0.667,0.894,0.581,0.702,0.383,0.855,0.563,0.938
NGSFLYVIISQ [LRP1B_Y1988_R1987L],0.844,0.663,0.468,0.367,0.88,1.27,0.468,1.44,0.931,1.2,0.539,0.666,0.403,0.546,0.47,0.68
GNLLIYTEFGK [HGD_Y166],1.81,0.54,0.56,7.36,0.731,1.28,4.24,1.28,3.12,1.14,4.65,1.13,5.93,0.668,0.471,0.687
EATKGHLDDPT [G6PD_Y322_Y322H],0.643,0.55,0.467,0.584,0.664,0.851,0.448,1.04,0.821,0.856,0.496,0.488,0.453,0.6,0.598,0.815
ISTAGYSFPEL [EDAR_Y406_I408F],0.526,0.425,0.457,0.437,0.532,0.886,0.698,0.878,0.737,1.03,0.461,0.523,0.487,0.957,6.7,0.854
SSENPCATIKD [MEGF10_Y1030_Y1030C],0.43,0.445,0.554,0.468,0.602,0.812,0.438,0.823,0.509,0.66,0.492,0.494,0.465,0.806,0.541,0.795
MKGDFYRSLAE [YWHAG_Y131_Y133S_YF],0.334,0.467,0.422,0.404,0.52,0.697,0.37,0.73,0.585,0.811,0.49,0.437,0.441,0.551,0.352,0.758
SSFDTYHLSRE [KIR3DL2_Y253_I252T_YF],0.528,0.539,0.615,4.75,0.595,0.756,0.613,0.842,0.613,0.7,3.51,0.616,3.31,0.824,0.701,0.764
KIIRWYVSSEG [ANK2_Y3907_R3906W],0.69,0.543,0.55,0.51,0.784,1.31,0.415,1.34,0.747,1.2,0.498,0.679,0.455,1.51,1.18,1.19
AFPVSYSSSGA [RET_Y687],0.455,0.392,0.407,0.344,0.406,0.511,0.454,0.541,0.53,0.52,0.303,0.314,0.477,0.65,0.506,0.767
GHNNVYISEHV [GRIN2A_Y1423_D1421N],0.374,0.393,0.421,0.475,0.463,0.734,0.419,0.6,0.522,0.769,0.476,0.459,0.425,0.759,0.469,0.915
FFHCTYKQRMI [CLEC12A_Y242_K244Q_YF],0.687,0.513,0.643,0.493,0.752,1.04,0.517,1.28,0.85,1.02,0.498,0.608,0.435,1.07,0.902,1.27
PVGVLYEVKVF [PTS_Y128_K129E_YF],1.5,2.05,1.02,0.849,1.41,2.17,1.16,2.67,1.29,2.08,0.986,0.91,0.89,0.836,0.611,0.992
EIASHYRHLLR [ZBTB46_Y14_T11A],0.357,0.516,0.416,0.428,0.528,0.597,0.421,0.585,0.415,0.703,0.573,0.42,0.421,0.794,0.522,0.759

Sequence,phosphorylation enrichment [1],phosphorylation enrichment [2],phosphorylation enrichment [3],phosphorylation enrichment [4],phosphorylation enrichment [5],phosphorylation enrichment [6],phosphorylation enrichment [7],phosphorylation enrichment [8],phosphorylation enrichment [9],phosphorylation enrichment [10],phosphorylation enrichment [11],phosphorylation enrichment [12],phosphorylation enrichment [13],SH2 binding enrichment [14],SH2 binding enrichment [15],SH2 binding enrichment [16]
PELINYHQPNS [BTK_Y361_H364P],1.04,0.678,0.723,0.597,0.857,0.928,0.657,0.908,0.574,0.829,0.734,0.727,0.8,0.763,0.704,1.07
AHAGEYGAGAL [HBA1_Y25_E28G],0.376,0.384,0.365,0.405,0.485,0.575,0.395,0.539,0.616,0.608,0.49,0.434,0.489,0.589,0.403,0.776
FGYPGYQCKHY [TIMP3_Y177_S179C],0.295,0.374,0.46,0.477,0.59,0.718,0.704,0.806,0.473,0.588,0.44,0.519,0.428,0.876,0.805,0.916
ADNSAYLMGLN [MYH7_Y386_K383N],0.629,0.497,0.512,0.514,0.61,0.865,0.473,0.932,0.738,1.11,0.603,0.566,0.587,0.723,0.556,0.993
RHLQEYQDPLN [GFAP_Y349_L352P],0.504,0.472,0.723,0.579,0.668,0.823,0.576,0.959,0.753,0.878,0.517,0.739,0.503,0.842,0.645,0.949
EMFNPYFGLFE [NEDD4L_Y679_YF],2.32,2.66,1.94,7.38,1.68,1.52,3.52,1.21,1.14,8.21,6.01,1.88,7.31,1.1,0.743,1.53
SNKLHYQLEQE [PDPR_Y110_Y109H],0.504,0.498,0.496,0.519,0.673,0.917,0.442,1,0.647,0.699,0.535,0.505,0.443,0.783,0.72,1.01
MSSLFYANTLF [HOXB7_Y6_YF],1.14,3.42,0.656,0.905,0.735,0.906,3.91,1.19,0.693,0.859,0.905,0.834,0.883,0.861,0.509,0.905
ERSMSYCDESR [SMG1_Y143_S144C],0.435,0.474,0.475,0.422,0.551,0.788,0.43,0.77,0.704,0.728,0.402,0.496,0.491,1.28,0.644,0.951
DAANNYARGHF [TUBA3E_Y103_S101N_YF],0.382,0.431,0.422,0.425,0.403,0.698,0.544,0.652,1.06,0.391,0.426,0.626,0.468,0.823,0.531,0.665
MSSHHCDFKKF [ZNF445_Y428_Y428C_YF],0.401,0.43,0.437,0.392,0.417,0.47,0.474,0.487,0.529,0.519,0.452,0.393,0.415,0.759,0.449,0.811
REVPVYIGEDS [SYNM_Y460],0.391,0.499,0.661,0.402,0.909,1.05,0.426,1.36,0.595,1.02,0.659,0.547,0.481,0.625,0.691,0.707
PSAEGYQDVRD [ABLIM1_Y439],0.656,0.634,0.571,0.689,0.699,1.15,0.348,1.08,0.688,0.873,0.545,0.649,0.492,0.621,3.8,0.812
HGAKVYIDPFT [EPHB4_Y590_T587A],1.08,0.715,1.46,0.792,0.912,0.986,0.535,1.04,0.831,0.761,0.792,0.975,0.713,0.668,0.592,0.712
PFAEPYADFGG [APBA1_Y187_S184A_YF],0.695,0.38,0.68,0.72,0.802,1.13,0.571,1.2,0.638,0.993,0.673,0.593,2.43,0.682,0.676,0.742
LKDEDYLKDTV [HAUS3_Y582_I586T],1.7,0.928,1.88,1.99,1.63,3.63,1.04,3.04,1.37,2.34,1.67,1.67,0.838,0.501,0.478,0.708
